Read-outs that look alike come from different tables or passages of the source.
B1: S306 (antibody)
heavy: QVQLVQSGAEVKKPGASVKVSCKASTYTFTSFGISWVRQAPGQGLEWMGWITTYSGDTNYAQKFQGRVTMTTDTSTNTAYMELRSLRSDDTAVYYCASDYFDSSGYYHSFDYWGQGTLVTVSS
light: EIVLTQSPDTLSLSPGERATLSCRASQSVSSYLAWYQQRPGQAPRLLIYDASKRATGIPARFSGSGSGTDFTLTISSLEPEDFAVYYCQQRSNWPPGCSFGQGTKVEIK
B2: SARS-CoV-2 S306 mAb (B cell supernatant) (antibody, V domains shown)
VH: QVQLVQSGAEVKKPGASVKVSCKASTYTFTSFGISWVRQAPGQGLEWMGWITTYSGDTNYAQKFQGRVTMTTDTSTNTAYMELRSLRSDDTAVYYCASDYFDSSGYYHSFDYWGQGTLVTVSS
VL: EIVLTQSPDTLSLSPGERATLSCRASQSVSSYLAWYQQRPGQAPRLLIYDASKRATGIPARFSGSGSGTDFTLTISSLEPEDFAVYYCQQRSNWPPGCSFGQGTKVEIK

Legend:
Conditions in all cases: remark: other sources report otherwise
[1] = target: T1, SARS-CoV-2 Spike (S) protein, strain BetaCoV/Wuhan-Hu-1/2019, full length (SARS-CoV-2 Wuhan-Hu-1), P0DTC2; test: flow cytometry, ExpiCHO cells transfected with SARS-CoV-2 S; MFI (AF647)
[2] = target: T1, SARS-CoV-2 Spike (S) protein, strain …; test: flow cytometry, ExpiCHO cells expressing SARS-CoV-2 S; % positive cells
[3] = target: T1, SARS-CoV-2 Spike (S) protein, strain …
[4] = target: T1, SARS-CoV-2 Spike (S) protein, strain …; remark: listed apart in the source

Binder | EC50 (read off the curve) [1] [µg/mL] | EC50 (read off the curve) [2] [µg/mL] | EC50 (read off the curve) [3] [µg/mL] | POS [4]
B1 | 0.2 | 0.001 | 0.2 | 
B2 |  |  |  | 57.6
